Measured values as given in patent publication WO2022138911A1 (dated 2022).

Molecular target: SARS-CoV2 Spike protein (ECD, His & Flag Tag) (GenScript, Z03481) (135 kDa) (SARS-CoV2 virus, UniProt P0DTC2 14-1213)

B1: purified recombinant 7G7.1 antibody (antibody, human IgG1, lambda)
heavy: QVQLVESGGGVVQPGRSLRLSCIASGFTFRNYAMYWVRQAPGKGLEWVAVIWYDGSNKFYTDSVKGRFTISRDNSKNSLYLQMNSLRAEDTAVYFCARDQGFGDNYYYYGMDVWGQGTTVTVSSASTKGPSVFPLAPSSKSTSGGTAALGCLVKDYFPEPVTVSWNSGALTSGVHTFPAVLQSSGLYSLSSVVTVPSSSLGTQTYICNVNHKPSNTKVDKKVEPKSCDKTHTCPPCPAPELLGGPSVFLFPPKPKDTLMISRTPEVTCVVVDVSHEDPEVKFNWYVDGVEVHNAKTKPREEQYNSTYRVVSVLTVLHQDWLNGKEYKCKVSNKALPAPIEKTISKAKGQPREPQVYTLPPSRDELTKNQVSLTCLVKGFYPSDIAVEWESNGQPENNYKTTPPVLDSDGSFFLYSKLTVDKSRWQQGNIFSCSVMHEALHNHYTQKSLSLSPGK
light: SYELTQPPSVSVSPGQTARISCSGDALPKEYAYWYQQKPGQAPVLVIYKDSERPSGIPERFSGSSSGTTVTLTISGVQAEDEADYYCQLADSSMHYVVFGGGTKLTVLGQPKAAPSVTLFPPSSEELQANKATLVCLISDFYPGAVTVAWKADSSPVKAGVETTTPSKQSNNKYAASSYLSLTPEQWKSHRSYSCQVTHEGSTVEKTVAPTECS
  Kd: 2.04 nM

B2: purified recombinant 7G7.2 antibody (antibody, human IgG1, kappa)
heavy: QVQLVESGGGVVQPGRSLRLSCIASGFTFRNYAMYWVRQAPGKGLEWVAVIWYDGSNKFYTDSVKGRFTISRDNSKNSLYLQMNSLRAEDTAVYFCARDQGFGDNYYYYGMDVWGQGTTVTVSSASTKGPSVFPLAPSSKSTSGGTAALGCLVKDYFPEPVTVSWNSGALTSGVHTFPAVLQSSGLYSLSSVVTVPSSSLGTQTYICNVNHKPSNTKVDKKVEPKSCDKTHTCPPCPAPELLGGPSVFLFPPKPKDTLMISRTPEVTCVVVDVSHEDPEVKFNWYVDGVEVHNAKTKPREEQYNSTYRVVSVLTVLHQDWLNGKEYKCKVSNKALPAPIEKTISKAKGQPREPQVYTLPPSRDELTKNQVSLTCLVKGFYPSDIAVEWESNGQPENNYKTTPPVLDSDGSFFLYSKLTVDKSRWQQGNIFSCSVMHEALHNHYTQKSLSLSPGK
light: SYELTQPPSVSVSPGQTARISCSGDALPKEYAYWYQQKPGQAPVLVIYKDSERPSGIPERFSGSSSGTTVTLTISGVQAEDEADYYCQLADSSMHYVVFGGGTKLTVLRTVAAPSVFIFPPSDEQLKSGTASVVCLLNNFYPREAKVQWKVDNALQSGNSQESVTEQDSKDSTYSLSSTLTLSKADYEKHKVYACEVTHQGLSSPVTKSFNRGEC
  Kd: 1.55 nM
